± gives the uncertainty stated by the source.
Experiment: amyloid nucleation score (Sup35N fusion, yeast selection) (log enrichment); library NNK2; higher = more nucleation; inactive = no reads after selection
Procedure, shortened: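 The nucleation score equals the log enrichment of output over input reads from DiMSum, centred on the mode score of non-aggregating sequences. It was computed only for sequences with 100 or more input reads. The reads came from Illumina sequencing of plasmid inserts from psi-negative yeast expressing Sup35N fused to peptides of 20 random codons, induced with 100 μM copper sulfate for 24 hours and grown 7 days at 30°C without adenine and uracil.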

Row | Substance | amyloid nucleation score
1 | GTLFIRSPYFCL | -0.478 ± 0.61
2 | YMSPAH | 0.606 ± 0.6
3 | KCVVKELYWLWFHLSSVNLY | -1.23 ± 1.1
4 | KFIFTSLAN | -0.425 ± 0.61
5 | TGFNRCGSRWWLLVSNVKLV | -0.388 ± 0.54
6 | GRKISNCCQCWCHGL | 7.72 ± 0.042
7 | KWRAFYPSTGSLRVEILSF | -1.22 ± 1.1
8 | GLLTGITILIVVDSCLGVCF | 3.99 ± 0.095
9 | AYCCINLHYNLKVS | 0.665 ± 0.65
10 | MIFCCTRK | 8.708 ± 0.078
11 | AVIDIIKRTSCTCDESCCIR | 0.415 ± 0.31
12 | HKWWSAPGSLAS | -0.038 ± 0.79
13 | VFNWVRISPR | 8.81 ± 0.07
14 | SMTTH | -0.777 ± 0.36
15 | IPYGMSWTWSH | -0.565 ± 0.3
16 | NNLATPRQRVWLQVTLPARP | 0.692 ± 0.21
17 | KNNRVAFTLYFSQTARDWMH | 5.156 ± 0.046
18 | SFLSRL | -0.4 ± 0.65
19 | RSCFPMIIALVRFDVFGDCY | -0.339 ± 0.31
20 | GSMITCFVSDTLYKTVMVKL | 0.373 ± 0.54
21 | NRTAFPCFLA | -0.473 ± 0.49
22 | WWDTRRHVQCCSAEAIDFME | 1.3 ± 0.47
23 | ATVFF | 0.768 ± 0.28
24 | PISFVCYMEKVLDYANWPCR | 8.458 ± 0.066

Row | Substance | amyloid nucleation score
25 | SCIDCLRLSLLSGCIHWVNY | 0.509 ± 0.8
26 | IMMWFYPARTRQELASYEDQ | 2.12 ± 0.089
27 | STCGEAVKTFLVGLFELFMV | 0.452 ± 0.66
28 | CKCPYFLCIRFWDVDSAMLS | 2.21 ± 0.076
29 | CSKLFSRGPGLAFFQFFI | inactive
30 | FNVAGRRRISGTNLY | -0.159 ± 1.1
31 | NSVETLMNQRCWVCHTCCVK | -0.472 ± 0.64
32 | YVNPKVAWAGIDSAAEEDSD | 0.047 ± 0.49
33 | TPSFLLMICRNMVLGCG | 0.472 ± 0.8
34 | HFRVYSWIQVK | 0.337 ± 0.49
35 | KLIHWIILVWFSSGTLPCND | -0.133 ± 0.5
36 | NSKGN | 0.112 ± 1.1
37 | ITPMFPCLVVWWWESR | -0.235 ± 0.61
38 | IALQDSDFSLLWFMHVCWDE | -0.463 ± 0.74
39 | MKYLIVCDFCGLYSPCGFCF | 7.808 ± 0.037
40 | SRTDRLDGCAWLLYDCTMGD | -0.211 ± 0.53
41 | WQRMDGIGELILMCCRYSFL | 5.819 ± 0.033
42 | PNRYYQLGTYFLNVQVRQFG | 4.18 ± 0.045
43 | AAMPLPF | inactive
44 | RLRTKCYFNCCNGHYLEFGG | 9.489 ± 0.067
45 | FHSRAEICLIWNHIVQDWRN | 3.58 ± 0.071
46 | YALDL | 0.08 ± 0.55
47 | THQRAYCFSSVYWVNVSKSG | -0.006 ± 0.74
48 | GCSNVCERGS | inactive

Row | Substance | amyloid nucleation score
49 | SLSYDWFASHLWTYDGW | -1.03 ± 0.34
50 | TWRHSPCLVRTEFERKLTRL | 0.039 ± 0.49
51 | CAVDLFGVAIRALMFRSWGC | inactive
52 | RLYVKWSNSISDSRSLCVP | 0.208 ± 0.16
53 | LRMHFMMWTRRVNLVRHGNN | inactive
54 | GNGRHC | -0.021 ± 0.21
55 | SVCGLWWLSHSVQRWSEWYS | 5.99 ± 0.067
56 | VYATFPSTIYLMLVFMESGV | inactive
57 | FWVFTNIESMGLAYCDNQDL | 3.09 ± 0.064
58 | NPLHP | 0.116 ± 0.24
59 | RFSELSHK | -0.144 ± 0.26
60 | YGPICEYFQGCEALSWWSTC | 0.39 ± 0.2
61 | RVFRCYRIIYMVMI | 0.204 ± 0.19
62 | NLGGRFCAGFRRNHTCLGRN | -0.458 ± 0.33
63 | TLSKVFRVRPGSMTTHCYIV | inactive
64 | DFYVSVPLRNCFSMSFIKWV | -0.766 ± 0.48
65 | QLGLLFFGTVLM | 1.87 ± 0.14
66 | IYNMRHSMTMFHCYGFLRRV | -0.976 ± 0.63
67 | WQSSSILIASSCVRSPGLPV | 0.27 ± 0.46
68 | VRCEESWGDIICD | inactive
69 | HLTAYCMSTHRQACDVDFDF | -0.067 ± 1.1
70 | TAKSVVA | -0.703 ± 0.29
71 | IMPVMLERTGLSGLMCNGWG | -0.315 ± 0.65

Reference: the supplement of paper PMC12042874
